This assay deals with human serum albumin (human), P02768. The assay is described as follows: sandwich ELISA, HSA coated at 10 µg/ml, conjugate at 1 µM, detection with anti-FITC antibody.

B1: DOM7h-8cys/FITC conjugate (protein)
VL: DIQMTQSPSSLSASVGDRVTITCRASQSISSYLNWYQQKPGKAPKLLIYRNSPLQSGVPSRFSGSGSGTDFTLTISSLQPEDFATYYCQQTYRVPPTFGQGTKVEIKC
modifications: not checked
On to B1, for which the OD600 was found to be 0.38 OD600.

Source of the values: US20090111745A1.
